Test results reported in patent US20210388087A1 (Chugai, published 2021).

These binders were tested against T1, Human CD137 ECD (human) (assay: single mutant vs template dBBDu183H).
T1 construct: also called 4-1BB
T1 sequence (chain, as listed by the source limits assumed): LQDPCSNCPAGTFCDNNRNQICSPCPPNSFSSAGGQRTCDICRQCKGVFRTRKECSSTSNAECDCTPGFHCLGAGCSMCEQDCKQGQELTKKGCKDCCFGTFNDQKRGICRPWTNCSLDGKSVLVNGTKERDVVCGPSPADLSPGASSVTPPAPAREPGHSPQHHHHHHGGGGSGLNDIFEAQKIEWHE

| fold change of affinity [fold] | Binder |
| --- | --- |
| 1.1 | H183/L072 VH A60L (antibody, name in Kabat numbering, V domains shown) VH: QVQLVESGGGLVQPGRSLRLSCAASGFTFSNAWMHWVRQAPGKGLEWVAQIKDKGNAYAAYYLPSVKGRFTISRDDSKNSIYLQMNSLKTEDTAVYYCHYVHYASASTVLPAFGVDAWGQGTTVTVSS VL: DIVMTQSPLSLPVTPGEPASISCQASQELVHMNRNTYLHWYQQKPGQAPRLLIYKVSNRFPGVPDRFSGSGSGTDFTLKISRVEAEDVGVYYCAQGTSVPFTFGQGTKLEIK |
| 1 | H183/L072 VH A60M (antibody, name in Kabat numbering, V domains shown) VH: QVQLVESGGGLVQPGRSLRLSCAASGFTFSNAWMHWVRQAPGKGLEWVAQIKDKGNAYAAYYMPSVKGRFTISRDDSKNSIYLQMNSLKTEDTAVYYCHYVHYASASTVLPAFGVDAWGQGTTVTVSS VL: DIVMTQSPLSLPVTPGEPASISCQASQELVHMNRNTYLHWYQQKPGQAPRLLIYKVSNRFPGVPDRFSGSGSGTDFTLKISRVEAEDVGVYYCAQGTSVPFTFGQGTKLEIK |
| 0.1 | H183/L072 VH A60P (antibody, name in Kabat numbering, V domains shown) VH: QVQLVESGGGLVQPGRSLRLSCAASGFTFSNAWMHWVRQAPGKGLEWVAQIKDKGNAYAAYYPPSVKGRFTISRDDSKNSIYLQMNSLKTEDTAVYYCHYVHYASASTVLPAFGVDAWGQGTTVTVSS VL: DIVMTQSPLSLPVTPGEPASISCQASQELVHMNRNTYLHWYQQKPGQAPRLLIYKVSNRFPGVPDRFSGSGSGTDFTLKISRVEAEDVGVYYCAQGTSVPFTFGQGTKLEIK |
| 1.3 | H183/L072 VH A60T (antibody, name in Kabat numbering, V domains shown) VH: QVQLVESGGGLVQPGRSLRLSCAASGFTFSNAWMHWVRQAPGKGLEWVAQIKDKGNAYAAYYTPSVKGRFTISRDDSKNSIYLQMNSLKTEDTAVYYCHYVHYASASTVLPAFGVDAWGQGTTVTVSS VL: DIVMTQSPLSLPVTPGEPASISCQASQELVHMNRNTYLHWYQQKPGQAPRLLIYKVSNRFPGVPDRFSGSGSGTDFTLKISRVEAEDVGVYYCAQGTSVPFTFGQGTKLEIK |
| 0 | H183/L072 VH A98I (antibody, name in Kabat numbering, V domains shown) VH: QVQLVESGGGLVQPGRSLRLSCAASGFTFSNAWMHWVRQAPGKGLEWVAQIKDKGNAYAAYYAPSVKGRFTISRDDSKNSIYLQMNSLKTEDTAVYYCHYVHYISASTVLPAFGVDAWGQGTTVTVSS VL: DIVMTQSPLSLPVTPGEPASISCQASQELVHMNRNTYLHWYQQKPGQAPRLLIYKVSNRFPGVPDRFSGSGSGTDFTLKISRVEAEDVGVYYCAQGTSVPFTFGQGTKLEIK |
| 0 | H183/L072 VH A98P (antibody, name in Kabat numbering, V domains shown) VH: QVQLVESGGGLVQPGRSLRLSCAASGFTFSNAWMHWVRQAPGKGLEWVAQIKDKGNAYAAYYAPSVKGRFTISRDDSKNSIYLQMNSLKTEDTAVYYCHYVHYPSASTVLPAFGVDAWGQGTTVTVSS VL: DIVMTQSPLSLPVTPGEPASISCQASQELVHMNRNTYLHWYQQKPGQAPRLLIYKVSNRFPGVPDRFSGSGSGTDFTLKISRVEAEDVGVYYCAQGTSVPFTFGQGTKLEIK |

Continued, binder first:

| Binder | fold change of affinity [fold] |
| --- | --- |
| H183/L072 VH A60I (antibody, name in Kabat numbering, V domains shown) VH: QVQLVESGGGLVQPGRSLRLSCAASGFTFSNAWMHWVRQAPGKGLEWVAQIKDKGNAYAAYYIPSVKGRFTISRDDSKNSIYLQMNSLKTEDTAVYYCHYVHYASASTVLPAFGVDAWGQGTTVTVSS VL: DIVMTQSPLSLPVTPGEPASISCQASQELVHMNRNTYLHWYQQKPGQAPRLLIYKVSNRFPGVPDRFSGSGSGTDFTLKISRVEAEDVGVYYCAQGTSVPFTFGQGTKLEIK | 0.7 |
| H183/L072 VH A60K (antibody, name in Kabat numbering, V domains shown) VH: QVQLVESGGGLVQPGRSLRLSCAASGFTFSNAWMHWVRQAPGKGLEWVAQIKDKGNAYAAYYKPSVKGRFTISRDDSKNSIYLQMNSLKTEDTAVYYCHYVHYASASTVLPAFGVDAWGQGTTVTVSS VL: DIVMTQSPLSLPVTPGEPASISCQASQELVHMNRNTYLHWYQQKPGQAPRLLIYKVSNRFPGVPDRFSGSGSGTDFTLKISRVEAEDVGVYYCAQGTSVPFTFGQGTKLEIK | 1.1 |
| H183/L072 VH A60N (antibody, name in Kabat numbering, V domains shown) VH: QVQLVESGGGLVQPGRSLRLSCAASGFTFSNAWMHWVRQAPGKGLEWVAQIKDKGNAYAAYYNPSVKGRFTISRDDSKNSIYLQMNSLKTEDTAVYYCHYVHYASASTVLPAFGVDAWGQGTTVTVSS VL: DIVMTQSPLSLPVTPGEPASISCQASQELVHMNRNTYLHWYQQKPGQAPRLLIYKVSNRFPGVPDRFSGSGSGTDFTLKISRVEAEDVGVYYCAQGTSVPFTFGQGTKLEIK | 1.3 |
| H183/L072 VH A60Q (antibody, name in Kabat numbering, V domains shown) VH: QVQLVESGGGLVQPGRSLRLSCAASGFTFSNAWMHWVRQAPGKGLEWVAQIKDKGNAYAAYYQPSVKGRFTISRDDSKNSIYLQMNSLKTEDTAVYYCHYVHYASASTVLPAFGVDAWGQGTTVTVSS VL: DIVMTQSPLSLPVTPGEPASISCQASQELVHMNRNTYLHWYQQKPGQAPRLLIYKVSNRFPGVPDRFSGSGSGTDFTLKISRVEAEDVGVYYCAQGTSVPFTFGQGTKLEIK | 1.1 |
| H183/L072 VH A60R (antibody, name in Kabat numbering, V domains shown) VH: QVQLVESGGGLVQPGRSLRLSCAASGFTFSNAWMHWVRQAPGKGLEWVAQIKDKGNAYAAYYRPSVKGRFTISRDDSKNSIYLQMNSLKTEDTAVYYCHYVHYASASTVLPAFGVDAWGQGTTVTVSS VL: DIVMTQSPLSLPVTPGEPASISCQASQELVHMNRNTYLHWYQQKPGQAPRLLIYKVSNRFPGVPDRFSGSGSGTDFTLKISRVEAEDVGVYYCAQGTSVPFTFGQGTKLEIK | 1.2 |
| H183/L072 VH A60S (antibody, name in Kabat numbering, V domains shown) VH: QVQLVESGGGLVQPGRSLRLSCAASGFTFSNAWMHWVRQAPGKGLEWVAQIKDKGNAYAAYYSPSVKGRFTISRDDSKNSIYLQMNSLKTEDTAVYYCHYVHYASASTVLPAFGVDAWGQGTTVTVSS VL: DIVMTQSPLSLPVTPGEPASISCQASQELVHMNRNTYLHWYQQKPGQAPRLLIYKVSNRFPGVPDRFSGSGSGTDFTLKISRVEAEDVGVYYCAQGTSVPFTFGQGTKLEIK | 1 |
| H183/L072 VH A60V (antibody, name in Kabat numbering, V domains shown) VH: QVQLVESGGGLVQPGRSLRLSCAASGFTFSNAWMHWVRQAPGKGLEWVAQIKDKGNAYAAYYVPSVKGRFTISRDDSKNSIYLQMNSLKTEDTAVYYCHYVHYASASTVLPAFGVDAWGQGTTVTVSS VL: DIVMTQSPLSLPVTPGEPASISCQASQELVHMNRNTYLHWYQQKPGQAPRLLIYKVSNRFPGVPDRFSGSGSGTDFTLKISRVEAEDVGVYYCAQGTSVPFTFGQGTKLEIK | 0.9 |
| H183/L072 VH A60W (antibody, name in Kabat numbering, V domains shown) VH: QVQLVESGGGLVQPGRSLRLSCAASGFTFSNAWMHWVRQAPGKGLEWVAQIKDKGNAYAAYYWPSVKGRFTISRDDSKNSIYLQMNSLKTEDTAVYYCHYVHYASASTVLPAFGVDAWGQGTTVTVSS VL: DIVMTQSPLSLPVTPGEPASISCQASQELVHMNRNTYLHWYQQKPGQAPRLLIYKVSNRFPGVPDRFSGSGSGTDFTLKISRVEAEDVGVYYCAQGTSVPFTFGQGTKLEIK | 0.9 |
| H183/L072 VH A60Y (antibody, name in Kabat numbering, V domains shown) VH: QVQLVESGGGLVQPGRSLRLSCAASGFTFSNAWMHWVRQAPGKGLEWVAQIKDKGNAYAAYYYPSVKGRFTISRDDSKNSIYLQMNSLKTEDTAVYYCHYVHYASASTVLPAFGVDAWGQGTTVTVSS VL: DIVMTQSPLSLPVTPGEPASISCQASQELVHMNRNTYLHWYQQKPGQAPRLLIYKVSNRFPGVPDRFSGSGSGTDFTLKISRVEAEDVGVYYCAQGTSVPFTFGQGTKLEIK | 1.2 |
| H183/L072 VH A98L (antibody, name in Kabat numbering, V domains shown) VH: QVQLVESGGGLVQPGRSLRLSCAASGFTFSNAWMHWVRQAPGKGLEWVAQIKDKGNAYAAYYAPSVKGRFTISRDDSKNSIYLQMNSLKTEDTAVYYCHYVHYLSASTVLPAFGVDAWGQGTTVTVSS VL: DIVMTQSPLSLPVTPGEPASISCQASQELVHMNRNTYLHWYQQKPGQAPRLLIYKVSNRFPGVPDRFSGSGSGTDFTLKISRVEAEDVGVYYCAQGTSVPFTFGQGTKLEIK | 0 |
| H183/L072 VH A98M (antibody, name in Kabat numbering, V domains shown) VH: QVQLVESGGGLVQPGRSLRLSCAASGFTFSNAWMHWVRQAPGKGLEWVAQIKDKGNAYAAYYAPSVKGRFTISRDDSKNSIYLQMNSLKTEDTAVYYCHYVHYMSASTVLPAFGVDAWGQGTTVTVSS VL: DIVMTQSPLSLPVTPGEPASISCQASQELVHMNRNTYLHWYQQKPGQAPRLLIYKVSNRFPGVPDRFSGSGSGTDFTLKISRVEAEDVGVYYCAQGTSVPFTFGQGTKLEIK | 0 |
| H183/L072 VH A100I (antibody, name in Kabat numbering, V domains shown) VH: QVQLVESGGGLVQPGRSLRLSCAASGFTFSNAWMHWVRQAPGKGLEWVAQIKDKGNAYAAYYAPSVKGRFTISRDDSKNSIYLQMNSLKTEDTAVYYCHYVHYASISTVLPAFGVDAWGQGTTVTVSS VL: DIVMTQSPLSLPVTPGEPASISCQASQELVHMNRNTYLHWYQQKPGQAPRLLIYKVSNRFPGVPDRFSGSGSGTDFTLKISRVEAEDVGVYYCAQGTSVPFTFGQGTKLEIK | 0 |
| H183/L072 VH A100L (antibody, name in Kabat numbering, V domains shown) VH: QVQLVESGGGLVQPGRSLRLSCAASGFTFSNAWMHWVRQAPGKGLEWVAQIKDKGNAYAAYYAPSVKGRFTISRDDSKNSIYLQMNSLKTEDTAVYYCHYVHYASLSTVLPAFGVDAWGQGTTVTVSS VL: DIVMTQSPLSLPVTPGEPASISCQASQELVHMNRNTYLHWYQQKPGQAPRLLIYKVSNRFPGVPDRFSGSGSGTDFTLKISRVEAEDVGVYYCAQGTSVPFTFGQGTKLEIK | 0 |
| H183/L072 VH A100M (antibody, name in Kabat numbering, V domains shown) VH: QVQLVESGGGLVQPGRSLRLSCAASGFTFSNAWMHWVRQAPGKGLEWVAQIKDKGNAYAAYYAPSVKGRFTISRDDSKNSIYLQMNSLKTEDTAVYYCHYVHYASMSTVLPAFGVDAWGQGTTVTVSS VL: DIVMTQSPLSLPVTPGEPASISCQASQELVHMNRNTYLHWYQQKPGQAPRLLIYKVSNRFPGVPDRFSGSGSGTDFTLKISRVEAEDVGVYYCAQGTSVPFTFGQGTKLEIK | 0.7 |
| H183/L072 VH A100P (antibody, name in Kabat numbering, V domains shown) VH: QVQLVESGGGLVQPGRSLRLSCAASGFTFSNAWMHWVRQAPGKGLEWVAQIKDKGNAYAAYYAPSVKGRFTISRDDSKNSIYLQMNSLKTEDTAVYYCHYVHYASPSTVLPAFGVDAWGQGTTVTVSS VL: DIVMTQSPLSLPVTPGEPASISCQASQELVHMNRNTYLHWYQQKPGQAPRLLIYKVSNRFPGVPDRFSGSGSGTDFTLKISRVEAEDVGVYYCAQGTSVPFTFGQGTKLEIK | 0.3 |
